These results are taken from the nanobody polyreactivity screen of Harvey et al. (2022).

A short description of the series: yeast display, Sf9 membrane polyspecificity reagent, FACS + sequencing; frameworks hold sequencing errors. The procedure, abridged:
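In a synthetic yeast display library (Saccharomyces cerevisiae BJ5465), nanobody expression was induced with galactose for 36–48 hours. FACS gates were set low and high (top ~1%) using anti-HA fluorescence for expression and streptavidin fluorescence for binding of the Sf9 membrane reagent. Each polyreactivity label is drawn from the gate of origin.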
Turning to “QVQLVESGGGLVQAGGSLRLSCAACGSTFYAYAMGWYRQAPGKERELVAAIDSGGSTYYADSVKGRFTISRYNAKNTVYLEMNSLKPEDTAVYYCAVRHRYTRAYRGRDYWGQGTQVTVSS”, the “polyreactivity (PSR sort gate)” value was “low polyreactivity”.
The same measure for “QVQLVESGGGLVQAGGSLRLSCAAFPYAMGWYIPAPAKERELVAAISSSGTSTYYADSVKGRFTISRDNAKNTVYLQMNSLKPEDTAVYYCNTALSRLSQHDYWGQGTQVTVSS”: “low polyreactivity”; for “QVQLVESGGGLVQAGGSLRLSCAAPGSTFGRYAMGWYRQAPGKERELVAAISKSGGSTYYADSVKGRFTISRDNAKNTVYLQMNSLKPEDTAVYYCAATTTRYSYEYWGQGTQVTVSS”: “low polyreactivity”; for “QVQLVESGGGLVQAGGSLRLSCAAPGSTLSYYAMGWYRQATGKERELVAAISLSVGSTYYADSVKGRFTISRDNAKNTVYLQMNSLKPEDTAVYYCAADDFYSGPFRGDYWGQGTQVTVSS”: “low polyreactivity”.
The same measure for “QVQLVESGGGLVQAGGSLRLSCAAPGYIFEFYAMGWYRQAPGKERELVAAISWRGGSTYADSVKGRFTISRDNAKNTVYLQMNSLKPEDTAVYYCNADVEGRYDWTENDYWGQGTQVTVSS”: “low polyreactivity”; for “QVQLVESGGGLVQAGGSLRLSCAASAFILYRYAMGWYRQAPGKERELVAAISRTGGSTYYADSVKGRFTISRDNAKNTVYLQMNSLKPEDTAVYYCNARSSYGLSYRQYGYWGQGTQVTVSS”: “high polyreactivity”; for “QVQLVESGGGLVQAGGSLRLSCAASAITFYDYPMGWYRQAPGKERELVAAITWNGGDTYYADSVKGRFTISRDNAKNTDYLQMNSLKPEDTAVYYCNATRHYFGGFHYEYYYWGQGTQVTVSS”: “low polyreactivity”.
The same measure for “QVQLVESGGGLVQAGGSLRLSCAASARIFGWNAMGWYRQAPGKERELVAAISWRGGSTYYADSVKGRFTISRDNAKNTVYLQMNSLKPEDTAVYYCNALYTRYVSQWFGYWGQGTQVTVSS”: “high polyreactivity”; for “QVQLVESGGGLVQAGGSLRLSCAASASIFRSYAMGWYRQAPGKERELVAAISWRGDSTYYADSVKGRFTISRDNAKHTVYLQMNSLKPEDTAVYYCNVQRSLRMDYWGQGTQGTVSS”: “high polyreactivity”; for “QVQLVESGGGLVQAGGSLRLSCAASASIFYIYGIGWYRQAPGKERELVARISSGDRTNYADSVKGRFTISRDNAKNTVYLHMNSLKAEDTAVYYCNARVSYYLGRYYWGQGTQVTVSS”: “high polyreactivity”.
Turning to “QVQLVESGGGLVQAGGSLRLSCAASASISDSYAMGRYRQAPGKERELVAAITSGDSTYYADSVKGRFTISRDNAKNTLYLQMNSLKPEDTAVYYCAKRVSRGRGYGFTDWSEYDYWGQGTQVTVSS”, the “polyreactivity (PSR sort gate)” value is reported as “low polyreactivity”.
Regarding “QVQLVESGGGLVQAGGSLRLSCAASASNYERYVMGWNRQAPGKERELVAAISRSGGTTYYADSVKGRFTISRDNAKNTVYLQMNSLKPEDTAVYYCAARVPHDSAGYDYWGQATQVTVSS”, the “polyreactivity (PSR sort gate)” value was “high polyreactivity”.
Consider “QVQLVESGGGLVQAGGSLRLSCAASASTFPVNAMGWYRQAPGKERELVAAIRSSTGRTYYADSVKGRFTISRDNAKNTVYLQMNSLKPEDTAVYYCAAYYLGQYEYDYWGQGTQVTVSS”, for which the “polyreactivity (PSR sort gate)” value is “low polyreactivity”.
The same measure for “QVQLVESGGGLVQAGGSLRLSCAASGAIFGFYAMGWYRQAAGKERELVADITFSVGSTNYADSVKGRFTISRDNAKNTVYLQRNSLKPEDTAVYYCAVANVYYEGYDYWGQGTQVTVSS”: “low polyreactivity”; for “QVQLVESGGGLVQAGGSLRLSCAASGAIFQPYGMGGYSQAPGKERELVAAISRGGTTYYADSVTGRFTISRANAKNTDYLQMNSLKPEETAVYYCAVKGYRYGTRYDYRGQGTQVTVSS”: “high polyreactivity”; for “QVQLVESGGGLVQAGGSLRLSCAASGAIFVAYAMGWYRQAPGKDRELVAAITYSAGSTYYADSVKGRFTISRDNAKNTVYLQMNSLKPEDTAVYYCAADALVYSFIGYEYWGQGTQVTLSS”: “low polyreactivity”.
Take “QVQLVESGGGLVQAGGSLRLSCAASGAIFYYYCMGWYRQAPGKEREWVAGISSRGGRTYYADSVKGRFTISRDNAKNTVYLQMNSLKPVDTAVYYCAADRYYYAYRYFPSGYWGQGTQVTVSS”: the “polyreactivity (PSR sort gate)” value is given as “low polyreactivity”.
The same measure for “QVQLVESGGGLVQAGGSLRLSCAASGAILDEYSMVWYRPAPGKAREFVAGIRTIGGSTYYADSVKGRFTISRENAKNTVYLQLNSLIPEDTADNYCAADGRTHEPQGWLGGYDYCGQGTQVTVSS”: “low polyreactivity”.
With “QVQLVESGGGLVQAGGSLRLSCAASGAMGWYRQAPGKERELVAGITSGGSTNYADSVKGRFTISRDNAKNTVYLQMNSLKPEDTAVYDCNAVGGPRWLSVGWPYDYWGQGTQVTVSS”, the “polyreactivity (PSR sort gate)” value is “low polyreactivity”.
For the sequence “QVQLVESGGGLVQAGGSLRLSCAASGANFGRNDMGWYRQAPGKERELVAAISWSGGRTYYADSVKGRFTISRDNAKNTVYLQMISLKPEDTAVYYCNRDYYVGRYDYWGQGTQVTVSS”, the “polyreactivity (PSR sort gate)” value is on record as “high polyreactivity”.
The same measure for “QVQLVESGGGLVQAGGSLRLSCAASGATFWRYAMGWYRQAPGKERELVAAISTSGGSTRYADSVKGRFTISRDNAKNTVYLQMNSLKPEDTAVYYCNAQHLARMDYWGQGTQVTVSS”: “high polyreactivity”; for “QVQLVESGGGLVQAGGSLRLSCAASGCIFTYNTMGWYRQAPGKERELVAAISGRGGRTYYADSVKGRFTISRDNAKNTVYLQMNSLKPEDTAVYYCNARKYSQKIYGNYNYWGKGTQVTVSS”: “high polyreactivity”; for “QVQLVESGGGLVQAGGSLRLSCAASGCTRWYAMGWYRQAPGKERELVAAINGRGVSTYYAVSVKGRFRISRDNAKHTVYLQMNSLKQADTAVYYCAAYAYYDRYRRYDYWGQGTQVTVST”: “low polyreactivity”.
Consider “QVQLVESGGGLVQAGGSLRLSCAASGDIFDAYAMGWYRQAPGKERELVAAISRSGGSTYYADSVKGRFTISRDNAKNTVYLQMNSLKPEDTAVYYCATRFSRRYVRYDYWGQGTQVTVSS”, for which the “polyreactivity (PSR sort gate)” value is reported as “high polyreactivity”.
With “QVQLVESGGGLVQAGGSLRLSCAASGFFFAGYAMGWYRQAPGKERELVAAISSGGGSTYYADSVKGRFTISRDNAKNTVYLQMNSLKPEDTAVYYCAARRLYPPGYYYWGQGTQVTVSS”, the “polyreactivity (PSR sort gate)” value is “high polyreactivity”.
The same measure for “QVQLVESGGGLVQAGGSLRLSCAASGFFFGFYAMGWYRQAPGKERELVASISGRGGRTSYADSVKGRFTISRDNAKITVYLQMNSLKPEDTAVYYCNKAGYGVSRKYDYWGQGTQVTVSS”: “high polyreactivity”; for “QVQLVESGGGLVQAGGSLRLSCAASGFICFDYDMGWYRQAPGKERELVAAINWTGGSTDYADSVKGRFTISRDNAKNTVYLQMNSLKPEDTAVYYCAAEGQDGRFYWGQGTQVTVSS”: “low polyreactivity”.
The same measure for “QVQLVESGGGLVQAGGSLRLSCAASGFIDAYTMGWYRQAPGKERELVAAMTWSGGRTYYADSVKGRFTISRDNAKNTVYLQLYSLKPEDTAVYYCAKDVTPYSPDDDYWGQGTQVTVSS”: “low polyreactivity”; for “QVQLVESGGGLVQAGGSLRLSCAASGFIFACYAMAWYRQAPGKERELVATISSSGARTYYADSVKGRFTISRDNAKNTVYLQMNSLKPEDTAVYYCSAAGRYRPVSPYSGYNYWGQGTQVTVSS”: “high polyreactivity”.
The same measure for “QVQLVESGGGLVQAGGSLRLSCAASGFIFAEYAMGWYRQAPGKERELVVAIDVGGGSTYYADSVKGRFTISRDNAKNTVYLQMNSLKPEDTAVYYCAATQYGYWVPYQGFDYWGQGTQVTVSS”: “low polyreactivity”; for “QVQLVESGGGLVQAGGSLRLSCAASGFIFAFYDKGWYRQAPGKERELVAAISWGGSTYYADSVKGRVTISRDNAKNTVYLQMNSLKPEDTAVYYCAARLSRSYLYGYWGQGTQVTVSS”: “high polyreactivity”.
For “QVQLVESGGGLVQAGGSLRLSCAASGFIFAINAMGWYRQAPGKERELVAAITSSGGSTYYADSVKGRFTISRDNAKNTVYLQMNSLKPEDTAVYYCAAPQGNPSQDWEDYWGQGTQVTVSS”, the “polyreactivity (PSR sort gate)” value is “low polyreactivity”.
The same measure for “QVQLVESGGGLVQAGGSLRLSCAASGFIFAPYAMGWYRQAPGKERELVAAISWSGGSTYYADSVKGRFTISRDNAKNTVYLQMNSLKPEDTAVYYCAAAGYITRYDRYDYWGQGTQVTVSS”: “high polyreactivity”.
Take “QVQLVESGGGLVQAGGSLRLSCAASGFIFAQNAMGWSRQAPGTERELVAAITSSGVSTYYADSVKGRFTISRDNAKNTVYLQMNSLKPEDTAVYYCNRTPRYTIRYGYWGQGTQVTVSS”: the “polyreactivity (PSR sort gate)” value is “high polyreactivity”.
The same measure for “QVQLVESGGGLVQAGGSLRLSCAASGFIFARNAMGWYRQAPGKERELVATITRSSGSTYYADSVKGRFTISRDNAKNTVYLQMNSLKPEDTAVYYCNARLYGTFWGQGTQVTVSS”: “high polyreactivity”.
On to “QVQLVESGGGLVQAGGSLRLSCAASGFIFARNTMGWYRQAPGKERELVAAITKSGGSTYYADSVKGRFTISRDNAKNTVYLQMNSPKPEDTSVYYCAARSWWLRGIYGFDSWGQGTQVTVSS”, for which the “polyreactivity (PSR sort gate)” value was “low polyreactivity”.
The same measure for “QVQLVESGGGLVQAGGSLRLSCAASGFIFARNVMGWSRQAPGKERELVAAISWSGGSTYYADSVKGRFTISRDNAKNTVYLQMNSLKPEDTAVYYCNKQFPFSKYYIMGYWGQGTQVTVSS”: “high polyreactivity”; for “QVQLVESGGGLVQAGGSLRLSCAASGFIFARYAMGWYIQAPGKERELVAAITRRGGSTYYADSVKGRFTISRDNAKNTVYLQMNSLKPEDTAVYYCAAVTSTSWGSVSYRYGVGYDYWGQGTQVTVSS”: “high polyreactivity”; for “QVQLVESGGGLVQAGGSLRLSCAASGFIFARYAMGWYREAPGKERELLAAITARGGSTYYADSVKGRFTISRDNAKNTVYLQMNSLKPEDTAVYYCADVSGYSTGGYRNRYNYWGQGTHVTVSS”: “high polyreactivity”.
Take “QVQLVESGGGLVQAGGSLRLSCAASGFIFARYAMGWYRQAPGKERELVASITGRGTSTRYADSVKGRFTISRDNAKNTVYLQMNSLKPEDTAVFYCNAARLSYSWVPSEMDYWGQGTQVTVSS”: the “polyreactivity (PSR sort gate)” value is recorded as “high polyreactivity”.
For “QVQLVESGGGLVQAGGSLRLSCAASGFIFASNAMGWYRQAPGKERELVASISRSGGNTYYADSVKGRFTISRDNAKNTVYLQMNSLKPEDTAVYYCAAEYIFHYYDIFDYWGQGTQVTVSS”, the “polyreactivity (PSR sort gate)” value is reported as “high polyreactivity”.
